Assay results taken from publication PMC5124861, “Transition steps in peroxide reduction and a molecular switch for peroxide robustness of prokaryotic peroxiredoxins” (Scientific Reports, 2016).

Biological target: the molecule itself
Assay: crystal structure; oxidized EcAhpC_(1-186)-YFSKHN; hanging-drop vapour diffusion, 1.6 M ammonium sulfate, 100 mM MES pH 6.5, 5% dioxane, 4.5 mg/ml protein, 291 K; 2.7 Å; decamer in the asymmetric unit

B1: chimeric EcAhpC_(1-186)-YFSKHN (enzyme, E. coli | human)
chain: MSLINTKIKPFKNQAFKNGEFIEITEKDTEGRWSVFFFYPADFTFVCPTELGDVADHYEELQKLGVDVYAVSTDTHFTHKAWHSSSETIAKIKYAMIGDPTGALTRNFDNMREDEGLADRATFVVDPQGIIQAIEVTAEGIGRDASDLLRKIKAAQYVASHPGEVCPAKWKEGEATLAPSLDLVGKYFSKHN
notes: C-terminal YFSKHN segment (helix with the YF motif) of human Prx2; Decamer (alpha2)5 in the crystal; In the oxidized form an intermolecular disulphide joins C47 and C166' of the two subunits of each dimer; the reduced form came from soaking oxidized crystals in 1 mM TCEP; The forward primer (NcoI, ATG GCA ATG TCC) may add residues before M1; also called chimeric Prx; Ox; copies: 10
With B1 the “stoichiometry N” value was 10.
